# Assay: soluble on expression in E. coli; label from the status in PepcDB or PDB records
row,Sequence,soluble on expression in E. coli
1,MKKTYYLFNPGELSRKDNTIRFVPIQEGENGQEQAGQARYIPVEGISDFYVFGSLRANSSLYNFLGSNDIAVHFFDYYENYTGSFMPRDFLLSGKMLLAQASAYKNKKKRLFLARKFIEGAASNMQKNLAYYNNRGKDMQPMMELIDKYSLRLKETTTIEALMGIEGNIRQAYYDAFNLIIDPFEMGVRSKQPPQNEVNALISFGNMMCYTLCLKAIHQSQLNPTISFLHTPGERRYSLCLDISEVFKPILVDRTIFKVMNKRIIQAKHFDKQLNKCILNPSGKKLFVQAFEERLSETIRHRKLNRSVSFRHLVKLECYKIAKDILGIEEYQPFKMYW,not soluble
2,MSLGKQLAALPADEVVEQLELAVERFLIQRKIPDQTELGFILNHLHYQTKKGGAVGVQELNIDKNIHQIAVIGDLHGDAESTKYIFQKVLLNKTFMESGMAVFLGDYVDRGQHGINVLTSILAAKVVYGDRVITIRGNHESENLNRRYGFLDEVSRAYGHAFYHKTIAPFFKLLPVAYVASVTSHTTLANRILFVHGGLPRNATLDTLILRSKVDIPSSNDITDQRYTHSLENCLPEDAVQDILWSDPSQTVHGKDTLNDYTKNPRGAGILYSSEFYRKFATENRVLAMFRGHQVVKNGFRRDFFNHYTVFSSSDYVGMKNKGAYAVLDVRCMRTTITSEVDVIGLQNYKEVNLAHCIHAYPVVQKPENEGHHHHHH,soluble
3,MAHHHHHHMSSDDECPELISARVPVTVLTGFLGSGKTTLLHYILSADHDMRIAVIVNEFEFGKTIEKGLTLKSSEKPDDEWLELNNGCMCCTAQTQTVKALESLMEHRGTFDLILVETSGLADPGPIAAMFWQDLPLCGHLYLSGIVTLVDAVNICRYLDDEDVMREAERQILMADKVVLNKCDIATEAQQKAALAAVREINPVATVIPSDHSRVPNLRDILFIDTTRAATELVHLHEHHHSSISAVSLEFFEAERAFAVSSYRDVHAIGSDLLYRCGDYGFEVVRCKAAIWCCEDGQYRLLQLQSIGDLFDVTPMVGQSVPFGCTRALVLGKQLDEVKLRDIFAKYLKATK,not soluble
4,MRREKTMDTLIRSIMIKSKRKMDAKVAQFGLTTQQARVLGFLNDNAANEIIQKDLQRIFQTRGASITSLIQGLEKKQLISRKPSLRDGREKVVTLTKEGKDIVDEFNASFPREDDKAKKILSADEYKTFIELLSKIDDQTDLEHHHHHH,soluble
5,MSLSTFDYDLIIIGSGPSGRAAAIQAGKLKRRVLVIDRKDRLGGVSVHTGTIPSKTLRETVLNLSGWRERSFYGRSYRVKDRISAEDLKARLHMTLDYEVDVLEHQFNRNHIDTLNGLARFVGPHEIEVATEAGDTTRLTAAKFLIATGTKTYRPDYVPFNGKTVVDGDDFLEMERIPRSLAVIGAGVIGVEYASMFSALDVRVTLIEPRETFLDFIDRTLIQEFTHQIRENGVDLRLGSAVEKIEDTGSHIEISLANGRHIRAEMLLFAAGRMGATSALNLDAVGLETDHRNRITVDRKTYQTSVPHIYATGDVIGHPSLASTSMQQGRVAACHALETPTLPESPWFPYGIYSVPEMSTCGMSEEELQERGIPYEVGVARFRETSRGHIMGLEHGMLKMLLSLKTRRVLGVQIVGEGATELIHIGQAVMNLKGTVDYFVQNTFNYPTLAEAYRTAGLDAFNRMPIPEEFKVKEGHHHHHH,soluble
6,MKIYLMRHTSVLFNGNEHCYGFTDVDVRDTFEEEAAAACARLKGLDPEAVFTSPLQRAAKLAAFCGYPDAIRDDRLKEMNFGDWEGKPWEEILDTTDIEAFFRRYIDEPVSGGESQREQFERVRDFILEKKAAGYRSILIFCHGGVINCARTLVGQCTLESAFASLPPFGSLTELIL,not soluble
7,KGTSENKSTTATDTVQAEKPQSGTIHLTRAEFLKKIADYENHSKEWKYLGDKPAIVDFYADWCGPCKMVAPILEELSKEYAGKIYIYKVNVDKEPELARDFGIQGIPTIWFVPMKGEPQVNMGALSKEQLKGYIDKVLLKQ,soluble
8,MKLINTTWTHQELVNNQLDNTDAFLVETYSAGNTDVVFTQAPKHYELLISNKHRAVKDNELEVIREFFLKRKIDKDIVLMDKLRTVHTDKLIEISFPTTV,soluble
9,MGSDKIHHHHHHMGVSKRTVMRYQTCREPGSLSASDKFKSVEAALESHVKEEEARYSGKGRGDGSLWHHLVRVARLAEKLGRSEGLDPATCRLAGLFHDAGKFSGGTYHQDDRPEEERSVDILVELAGKHDLDRDIVDRIARSFQQLYRDGENQTPLTRVLFDADNLDKLGFLGIANYFIKTGLRGKGVSANMLYQLTAELTYARHAADCMATPAGRELALRKAPETYRFILDLLQSLRDDGIFDFKVEEVMFDQLLLDVVSPYSCECRGTLERRLWNVRGIKCLEIHLEHSCPRCEARHEIRFCTPKLRTQGEKNTGDLFRTSQLDIRQAADSYF,not soluble
10,MHGVDEDDLERQRIEKIKEVQEAVAKLTGAKFQKLENLQRMERMLNKEIELLQNATRKALETHLVTCNYAFYKSIIDEVEEMENATAVLKTFKRDNVSVTVDIVMKEPNVWIKLVNRPAKTVLIEYRDGKRNGDVIAQIKQHLFVSRRFNRPQIRIYFRNGVLAEMAQKLIRHGIVVIGEHVDKSDPSLRGKWNEELIERLGEEEDSDWDEVDEDAASIPTLPSSQSQSESTLPRLNLDISAVMLLVSNMCEPGGVNYQFKEEMINKHVECERLKPAKAEVLEKLKGHHLIMCELAYRRVAEIVKNVGGPTEKKRFEELSKTIERVQDQPSDEIGRVVKLRNIKGITSITKRVFSCAEVTKTTTVTANQKFLTHSRAKHIYFDVIEIPPRPLTEQKEATAKVI,not soluble
11,MGSDKIHHHHHHATSKHVYGENENPYLKTNADAVVSTKAEFPISRLEAKTVKLTDYAEKFHTYLGMTVDETLAALSNGSVVFYPINISKNCWNRTAPTKGTNGWYYNTAGGVCDAASGIASIELDATKKELVLNVLETASVGTAISINVGFAINNGANFDDYVRFAFDVTVTDPGRIVVANTIPAGDYSAFSIEFADYQEVIESCLGLTLSEFITACKEPGGPIALYMVDSESGEWNTTSDYTAGGSGIGYWLTSNLKVTNWSDDGSTGSVLFVETQENGDMVNIGRNPASTSGSVFNVNFVYALKEDNSKFVEFIVKATLE,not soluble
12,MRVKTIMTQNPVTITLPATRNYALELFKKYKVRSFPVVNKEGKLVGIISVKRILVNPDEEQLAMLVKRDVPVVKENDTLKKAAKLMLEYDYRRVVVVDSKGKPVGILTVGDIIRRYFAKSEKYKGVEIEPYYQRYVSIVWEGTPLKAALKALLLSNSMALPVVDSEGNLVGIVDETDLLRDSEIVRIMKSTELAASSEEEWILESHPTLLFEKFELQLPNKPVAEIMTRDVIVATPHMTVHEVALKMAKYSIEQLPVIRGEGDLIGLIRDFDLLKVLVKSKA,soluble
13,MLYKEPEDGEKIKFDKGKWIVPNKPVILYIEGDGIGPEITNAAIKVINKAVERAYGSSREIKWLEVYAGEKAEKLVNDRFPKETQEMLLKYRVVLKGPLETPIGKGWKSVNVAIRLMLDLYANIRPVKYIEGLESPLKHPEKVDMIIFRENTDDLYRGIEYPFNSEEAKKIRDFLRKELKVEIEDDTGIGIKVMSKYKTQRITRLAIQYAIEHKRKKVTIMHKGNVMKYTEGAFREWAYEVALKEYRDFIVTEEEINQGKPDQGKIILNDRIADNMFQQIIIRPEEYDIILAPNVNGDYISDAAGALIGNIGMLGGANIGDEGGMFEAIHGTAPKYAGKNVANPTGIIKAGELMLRWMGWNEAADLIEKAINMAIRDKKVTQDIARFMGVKALGTKEYADELIKIMDTI,soluble
14,MTPEAAYQNLLEFQRETAYLASLGALAAWDQRTMIPKKGHEHRARQMAALARLLHQRMTDPRIGEWLEKVEGSPLVQDPLSDAAVNVREWRQAYERARAIPERLAVELAQAESEAESFWEEARPRDDWRGFLPYLKRVYALTKEKAEVLFALPPAPGDPPYGELYDALLDGYEPGMRARELLPLFAELKEGLKGLLDRILGSGKRPDTSILHRPYPVEAQRRFALELLSACGYDLEAGRLDPTAHPFEIAIGPGDVRITTRYYEDFFNAGIFGTLHEMGHALYEQGLPKEHWGTPRGDAVSLGVHESQSRTWENLVGRSLGFWERFFPRAREVFASLGDVSLEDFHFAVNAVEPSLIRVEADEVTYNLHILVRLELELALFRGELSPEDLPEAWAEKYRDHLGVAPKDYKDGVMQDVHWAGGLFGYFPTYTLGNLYAAQFFQKAEAELGPLEPRFARGEFQPFLDWTRARIHAEGSRFRPRVLVERVTGEAPSARPFLAYLEKKYAALYG,soluble
15,MDFQHWLHEAVNQLRDSDSPRRDAEILLEYVTGKGRTYIMAFGETPLTDVQQQQLADLLQRRKQGEPIAYLTGLREFWSLPLFVSPATLIPRPDTECLVEQALARLPVKTCRILDLGTGTGAIALALACERPDCEVTAVDRMPDAVALAIRNAEHLAIRNVRILQSCWFSALSGQQFDMIVSNPPYIDAQDPHLSEGDVRFEPRSALVADENGMADLTHIIDNARQMLTPGGFLLLEHGWQQGEAVRAVFRRSGYSDVETCRDYGGNERVTCGRFTP,not soluble
16,MLKLYLPCCRNNSTFAIRFSYASIAVDLILKIRQYMKRLHWILLLMILLIPTESISAKKKTEKSDREIWCDVMYRMAAPVLSNMSEGLLKQNMLVELSPTWDGRNQNVTYMECFGRLMAGLAPWLSLPDDETPEGLQRKQLREWALKSYANAVDPASPDYLLWRQENQTLVDAAFLAESFLRSYDALWMPLDSITKQRYIAEFTDLRRVDPSYSNWLLFSATVESFLRKAGAPSDTYRISSSLRKIEEWYVGDGWYSDGPRFAFDYYNSFVIHPMYIEALEIITEAGKREKIGNMPGCNFHEAIRRAQRFGVILERLISPEGTLPVFGRSITYRTGSLQTLALLAWRNWLPEELSNGQVRAAMTAVIQRMFGDGRNFNTAGFLTLGFNGSQPGISDYYTNNGSLYMASLAFLPLGLSADDPFWTDASQSWTSKKAWEGEEFPKDHSYHKELEHHHHHH,not soluble
17,MGSDKIHHHHHHMIPYNQSSVSTLQTKERKIDVFSVEGNVDNETVKSFGEEWTAFDSFNETEIYNAGDNYFDIVPETILKHITNALDVGCGTGRWSYYLSEKVGFIECIDPSEAVIAASSLLSGKNNIRISKAGVDNIPFADGTFDFVFSLGVLHHVPDTKKAVHACVQKLKMNGHILLYLYYNLENRGLIFKTLFHLSNSLRWMVSKLPGAIKRFVCDLLAIVIYMPFVIVSRILIKLNLAASVVSRVPLSWYADKSFNIIRNDSLDRFGTPLEQRFSKQQITDMLIHAGCTDIVFADNAPFWRVIAKKK,not soluble
18,MGSDKIHHHHHHMPMNIVQVIPSFNVGGGELLAVRLCAEIKNQRPDYKVTLISLYDPIPSIVYDEALASDAQIVTLGKKKGFDPFTPLRMLKTLRAIKPDVIHTHLAGLRYTLLAGVLGNYSLKVHTVHNLATHETFGFLKNVHRVAFKFFSWIPVSLSKEVQDSVRDMYCLESVIVNNGIKTNSEIINKSKEDIRKHYGLPLNSKIIITIGRLCTQKNQLLLIESFNKVCKNAENYTLLIVGEDNLNGSYKNKIDKIISELPDITRENLHLLGPRKDIPELLIASDVFVLSSDWEGVPLTLLEAMGYGTPVVCTSVGGIPDVIEHGFDGLLVSKGDSKSLGNAIIEVLSNNSFASSLAHNARKKFSQLYSIEMTAEKYLQLYNA,not soluble
19,MGSDKIHHHHHHMERAAFGKLVQALRREHRDEKGRVWTQEVLAERTQLPKRTIERIENGSLAHLDADILLRLADALELTIGERREFFFAATGIIEQKSATYKRSPEESLQYLIDMIRNMNVPAFVTDQYVNIIAANMITIRFFNIPMELIETAPLLPHGYNLMRVVFGTEYDFRRVVGTMWDEVARHNMQLFRAISLRVRADGYFVELLDNLMQYREFKRFWERAHLETEDTSAENFWYQYTHPVYGLLSYVSSRSQIPTSMGLLSMHTYIPLSPATTDLFAKLSTVANQDVIRLAPWPRSNG,not soluble
